We go through 3 molecules from US20250287954A1, “METHOD AND COMPOSITION OF SYNERGISTIC INSECTICIDAL MIXTURES” (priority 2022, published 2025).

The data set concerns Cabbage Loopers. Kind of data set: Cabbage looper diet overlay bioassay (mortality at 4 days after treatment). The class given is in vivo. As for the experimental part:
Insecticidal bioassay: Activity against Cabbage Loopers was tested on Diet Overlay Bioassays. The appropriate artificial insect diet was dispensed into each well of a standard 96 well plate and allowed to dry. Once the diet solidified, 100 μL of the treatment was pipetted into the appropriate number of wells and allowed to dry. A single 1st instar larva was delivered into each well of a 96 well plate. Mortality was scored at 4 days after treatment.
Efficacy is expressed as percentage mortality at 4 days post treatment. Results (in duplicates) in % mortality are shown in above Table/chart.
FIG. 6 a plot of an insecticidal bioassay results for various purified compound with and without Sct1. Previous studies have shown that the insecticidal activity present in MBI-203 whole cell broth is mainly attributed to the synergy between secondary metabolites (chromamide analogues) and protein (Sct1). However, for these studies were carried out using mixed chromamides (a mixture of four analogues) and Sct1. With an objective to determine which chromamide analogue is critical for the observed synergy, these individual compounds were purified from MBI-203 WCB, and tested as mixture and individual compounds using the chewing bioassay. All compounds were tested at 3% rate based on the concentration of each present in the MBI-203 WCB. “Chroma mix” contained the chromamides MW 860, MW 874A, MW 874B, and MW 876.
Determination of LC50 value for MW 860 & Sct1. Based on the results from the above testing of purified compounds with & without Sct1, the LC50 for the MW 860, Chromamides MIX and Sct1 was determined. The individual pure compound and their mix were combined with Sct1 and submitted for determining the LC50 value.
FIG. 7 a plot of the effect of variation of concentration of MW 860 & Sct1 on insecticidal activity. Dose dependent study for MW 860 & Sct1 as mixture. To determine the minimum range of concentration of both MW 860 and Sct1 needed for good insecticidal activity, different ratios of both compounds were prepared and submitted for insecticidal bioassay.

Turning to `O=C1NC(c2c[nH]c3ccc(O)cc23)=C/C1=C1\C(=O)Nc2ccccc21` [violacein], the “% Mortality (Cabbage Looper Assay) with sct1 (average of 4 bioassays)” value (in vivo) amounted to 3.269%.

As to chromamide A [MW 860], the mortality – broadly, the percentage killed – (in combination with Sct1, 3% dose, Cabbage looper (CL) bioassay, two subsequent testings) stood at 92%.

B1: sct1: Scott protein, ~20 kDa, extracellular secreted hypothetical protein of MBI-203, SEQ ID NO: 1 (protein, listed as Chromobacterium subtsugae)
chain: MSLTTDFLENPQAFMRSQAILIPAQVPPGNGKYQFAAQGAHAAVLQSTAASPNIPGFYAHPVANNINLFVLPTQQPARYYMFTDGMNGCQFLAYGPDRQHITVEHNNFIGDPTRYAARLAEVVALKPAYLLHISPSGVNNIPAGQYNSQQGVNIVGEYGQANGWRFWVRDRVDQNQGTVYGPL
With B1, the “insecticidal activity when tested individually” value (tested individually, 3% rate based on concentration in MBI-203 WCB (FIG. 6)) was “did not show any significant activity”. Moreover, the “% Mortality (Cabbage Looper Assay) with sct1 (average of 4 bioassays)” value (with sct1, 4 days post treatment, compounds at 2% rate based on concentration in MBI-203 WCB, * samples neat (D30 1%, CSM2 2%)) is given as 1.087%. The “% Mortality (Cabbage Looper Assay) without sct1 (average of 3 bioassays)” value (without sct1, 4 days post treatment, compounds at 2% rate based on concentration in MBI-203 WCB, * samples neat (D30 1%, CSM2 2%)) is reported as 1.087%.
